Patent US12187772 (Regeneron, dated 2025)

Molecular target: T1, IL10 receptor (IL10 receptor subunit alpha IL10Ra and beta subunit IL10Rb) on Ramos/STAT3-Luc and … (UniProt Q13651 22-578; Q08334 20-325, limits assumed)
T1 sequence (looked up) 1: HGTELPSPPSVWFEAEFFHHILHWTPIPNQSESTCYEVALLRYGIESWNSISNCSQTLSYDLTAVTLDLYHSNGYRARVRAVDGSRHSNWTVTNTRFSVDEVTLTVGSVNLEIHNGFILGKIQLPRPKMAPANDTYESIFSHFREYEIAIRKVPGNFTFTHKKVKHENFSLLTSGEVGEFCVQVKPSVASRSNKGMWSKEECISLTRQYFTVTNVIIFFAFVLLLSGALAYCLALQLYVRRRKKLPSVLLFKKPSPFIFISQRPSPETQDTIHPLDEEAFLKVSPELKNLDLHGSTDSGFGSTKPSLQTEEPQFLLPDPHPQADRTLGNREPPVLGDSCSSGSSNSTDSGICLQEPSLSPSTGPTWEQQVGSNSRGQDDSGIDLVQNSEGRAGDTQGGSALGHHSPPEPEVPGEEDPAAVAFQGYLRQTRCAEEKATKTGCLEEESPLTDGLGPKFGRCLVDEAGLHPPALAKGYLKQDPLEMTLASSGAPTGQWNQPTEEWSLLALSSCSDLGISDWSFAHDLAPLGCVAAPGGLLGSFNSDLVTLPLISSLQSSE
T1 sequence (looked up) 2: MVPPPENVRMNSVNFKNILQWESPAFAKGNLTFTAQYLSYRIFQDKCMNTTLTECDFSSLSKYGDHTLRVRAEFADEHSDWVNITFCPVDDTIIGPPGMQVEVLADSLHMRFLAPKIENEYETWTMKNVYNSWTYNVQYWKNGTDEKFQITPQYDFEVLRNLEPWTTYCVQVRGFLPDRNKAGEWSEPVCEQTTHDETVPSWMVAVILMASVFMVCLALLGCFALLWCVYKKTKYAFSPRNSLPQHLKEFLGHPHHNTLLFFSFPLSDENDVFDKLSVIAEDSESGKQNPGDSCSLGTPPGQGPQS
Assay: cell-based or functional assay

B1: IL10M5 (Fc-1XG4S-hIL10; Fc is IgG4s) (Fc fusion)
chain: ESKYGPPCPPCPAPPVAGPSVFLFPPKPKDTLMISRTPEVTCVVVDVSQEDPEVQFNWYVDGVEVHNAKTKPREEQFNSTYRVVSVLTVLHQDWLNGKEYKCKVSNKGLPSSIEKTISKAKGQPREPQVYTLPPSQEEMTKNQVSLTCLVKGFYPSDIAVEWESNGQPENNYKTTPPVLDSDGSFFLYSRLTVDKSRWQEGNVFSCSVMHEALHNHYTQKSLSLSLGKGGGGSSPGQGTQSENSCTHFPGNLPNMLRDLRDAFSRVKTFFQMKDQLDNLLLKESLLEDFKGYLGCQALSEMIQFYLEEVMPQAENQDPDIKAHVNSLGENLKTLRLRLRRCHRFLPCENKSKAVEQVKNAFNKLQEKGIYKAMSEFDIFINYIEAYMTMKIRN
  EC50 of luciferase activity, Ramos/Stat3-Luc reporter cells: 0.127 nM
  EC50 of luciferase activity, TF-1/Stat3-Luc reporter cells: 0.146 nM
  Fold Induction of luciferase activity, Ramos/Stat3-Luc reporter cells: 3.81 fold
  Fold Induction of luciferase activity, TF-1/Stat3-Luc reporter cells: 3.4 fold

B2: IL10M4 (Fc-2XG4S-hIL10; Fc is IgG4s) (Fc fusion)
chain: ESKYGPPCPPCPAPPVAGPSVFLFPPKPKDTLMISRTPEVTCVVVDVSQEDPEVQFNWYVDGVEVHNAKTKPREEQFNSTYRVVSVLTVLHQDWLNGKEYKCKVSNKGLPSSIEKTISKAKGQPREPQVYTLPPSQEEMTKNQVSLTCLVKGFYPSDIAVEWESNGQPENNYKTTPPVLDSDGSFFLYSRLTVDKSRWQEGNVFSCSVMHEALHNHYTQKSLSLSLGKGGGGSGGGGSSPGQGTQSENSCTHFPGNLPNMLRDLRDAFSRVKTFFQMKDQLDNLLLKESLLEDFKGYLGCQALSEMIQFYLEEVMPQAENQDPDIKAHVNSLGENLKTLRLRLRRCHRFLPCENKSKAVEQVKNAFNKLQEKGIYKAMSEFDIFINYIEAYMTMKIRN
  EC50 of luciferase activity, Ramos/Stat3-Luc reporter cells: 0.115 nM
  EC50 of luciferase activity, TF-1/Stat3-Luc reporter cells: 0.138 nM
  Fold Induction of luciferase activity, Ramos/Stat3-Luc reporter cells: 4.06 fold
  Fold Induction of luciferase activity, TF-1/Stat3-Luc reporter cells: 3.78 fold
